These results are taken from the nanobody polyreactivity screen of Harvey et al. (2022).

This data set can be described thus: yeast display, Sf9 membrane polyspecificity reagent, FACS + sequencing; frameworks hold sequencing errors. The method in brief: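 A synthetic nanobody library was expressed on Saccharomyces cerevisiae BJ5465 by galactose induction for 36–48 hours. The library was stained for 1 hour at 4 °C with 10% biotinylated, detergent-solubilized Sf9 membrane reagent and enriched with streptavidin microbeads before FACS. Low and high (top ~1%) gates were set on anti-HA fluorescence for expression and streptavidin fluorescence for reagent binding, and each polyreactivity label reflects the gate of origin.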
Take “QVQLVESGGGLVQARGSLRLSCAASGRIFNYNAMGWYRQAPGKERELVAAITSSGGSTYYADSVKGRFTISRDNAKNTVYLQMNSLKPEDTAVYYCNALITYSSDYWGQGTQVTVSS”: the “polyreactivity (PSR sort gate)” value was “low polyreactivity”. Then “QVQLVESGGGLVQARGSLRLSCAASGRTFFNNAMGWYRQAPGKERELVAGISVTTGSTYYADSVKGRFTISRDNAKNTVYLQMNSLKPEDTAVYYCAARRKQYYAAYRYYYWGQGTQVTVSS”, with “high polyreactivity”; and “QVQLVESGGGLVQARGSLRLSCAASGRTFTYNAMAWYRQAPGKERELVAAINSGGSTNYADSVKGRFTISRDNAKNTVYLQMNSLKPEDTAVYYCNAGFGFGSSRYGTRYYYWGQGSQVTVSS”, with “low polyreactivity”. Take “QVQLVESGGGLVQARGSLRLSCAASGRTFYYYAMGWSRQAPGKERELVATISSGGSTSYADSVKGRFTISRDNAKNTVNLQMNSLKPEDTAVYYWNGRGRYLGTYHLGRLYNFWGQGTQVTVSS”: the “polyreactivity (PSR sort gate)” value is “high polyreactivity”. Then “QVQLVESGGGLVQARGSLRLSCAASGSIFPPYAMGWYRQAPGKERELVAAINSGGSTNYADSVKGRFTISRDNAKNTVYLQMNSLKAEDTAVYYCAAEVVYPVYEYDYWGQGTQVTVSS”, with “low polyreactivity”; and “QVQLVESGGGLVQARGSLRLSCAASGSIFSYYARGLYRQAPGKESELVAAITRGGTTYYADSVKGRFTISRDNAKNSVYLQMNSLKPEDTAVYYCAVYYYSGTAGYRYGYWGQGSQVTVSS”, with “high polyreactivity”; and “QVQLVESGGGLVQARGSLRLSCAASGSTFDPYAMGWYRQAPGINYSGASTYYADSVKGRFTISRDNAKNTVYLQMNSLKPDDTAVYYCAAEFVAQMNYWGQGTQVNVSS”, with “low polyreactivity”. Then “QVQLVESGGGLVQARGSLRLSCAASGSTFEANSMGWYRQAPGKERELVAVLTWTGGSTYYADSVKGRFTISRDNAKNTVNLHMISLNPEDTAVEYCAADGVLPGRFFWPAHEYDYWGQGTQVTVSS”, with “low polyreactivity”; and “QVQLVESGGGLVQARGSLRLSCAASGSTFSYNDMGWYRQAPGKERDLVADINVSVGRTYYADSVKGRFTISRDNAKNTVFLQMNSLKPEDTAVYYCNATLYTITSYVYAYDYWGQGTQVTVSS”, with “low polyreactivity”; and “QVQLVESGGGLVQARGSLRLSCAASGSTFSYYTMGWYREAPGKERELVAAITRRGDSTYADSVKGRFTISRDNAMNTVYLQLNSLKPEDTAVYYFAADDYVGVSGMDYWGQGTQVTVSS”, with “low polyreactivity”. Then “QVQLVESGGGLVQARGSLRLSCAASGSTLSPYVMGWYRQAPGKERELVATISRSGGRTYYADSVKGRFTISRDNAKNTVYLQMNSLKPEDTAVYYCAARTYYWGALIVSYDYWGQGTQGTVSS”, with “low polyreactivity”; and “QVQLVESGGGLVQARGSLRLSCAATGFTIWQNAMGWYRQPQGKERELVAGIRLSGGSTYADSVKGRFTIARDNAKNTVYLQMNSLKPEDTAVYYCAARIAGNYRYRSLRYDYWGQGTQVTVSS”, with “high polyreactivity”; and “QVQLVESGGGLVQARGSLRLSCAPSGFTFEAYAMGWYRQAPGKERELVAAISSSDTTSYADSVKGRFTISRDNAKNTVYLQMNSLKREDTAVYYCAADDWYTGYDYWGQGTQVTVSS”, with “high polyreactivity”. Take “QVQLVESGGGLVQARGSLRLSCAPSGSIFDHNAMGWYRQAPGKESEFVAAISSSGGSTNYADSVKGRFTISRDIAKNTVYLQMNSLKPEDTAVYYCAAYPDRYVELGYWGQGTQVTVSS”: the “polyreactivity (PSR sort gate)” value is “low polyreactivity”.

Turning to “QVQLVESGGGLVQARGSLRLSCASSGSTFSRYAMGWYRQAPGKERELVAGISWSGGNTYYADSVKGRFTISRDNAKNTVYLQMNSLKPEDTAVYYCAADFLDYWGVYGWAEYEYWGQGTQVTVSS”, the “polyreactivity (PSR sort gate)” value is “low polyreactivity”. Then “QVQLVESGGGLVQARGSLRLSCSASGSIIDIYAMGWYRQAPGKERELVAAITGGGSTNYADSVKGRFTISRDNAKNTVYLQMNILKPEDTAVYYCAAGTYLNGGGEYWGQGTQVTVSS”, with “low polyreactivity”. Then “QVQLVESGGGLVQARGSLRLSSAASGIIFCHYVMGWYRQAPGKERELVAAISSRGGNTYYADSVKWRFTISRDNAKNTVYFQMNSLKPEDTAVYYCNARGGARAWYFAYNYWGHGTQVTVSS”, with “high polyreactivity”; and “QVQLVESGGGLVQARGSLRLSSAASGRTFHYNAMGWYRQAPGKERELVAAISFNGGGTYYADSVKGRFTISRDNAKNTVYLQMNCLKTEDTAVYYCATDVPSRYDYWGQGTQVTVSS”, with “low polyreactivity”.

Take “QVQLVESGGGLVQARGSLRLSSAASGSTFYDYAMGWYRHAPGKERELVAAISGNGDSTYYADSVKGRFTISRDNAKNTVYLQMNSLNPEDTAVYYCAAYLGWGYDYWGQGTQVTVSS”: the “polyreactivity (PSR sort gate)” value is on record as “low polyreactivity”. Then “QVQLVESGGGLVQARGSLRLSSAASRSTFNVYAMGWYRQAPGKERELVAGIRDSDGSTNYADSVKGRFTISRDNAKNTVYLQMNSLKPEDTAVYYCAADLYDINWSVWLDYWGQGTQVTVSS”, with “low polyreactivity”. Then “QVQLVESGGGLVQAVCSLRLICAASGLTFGGYSMGWYRQAPAKERELVAAISRSCGSTYYADSVKGRFTISRDNAKNTVFLQMNSLKPEDTAVYYCNAGRDTKYDYWGQGTQVTVSS”, with “low polyreactivity”. Then “QVQLVESGGGLVQAVGSLLLSCAASGITFRYYAMGWYRQAPGKERELVARITTDGSTHYADSVMGRFTISRDNAKNTVYLQMNSLKPEDTAVYYCNVDGYYLFVRGYEYWGLGTQVTVSS”, with “low polyreactivity”. With “QVQLVESGGGLVQAVGSLRLSCAASGFIFAQNARGGSRPAPGKERELVAAIYGSGVRTYYADSVKGRFTISRDNAKNTVYLQMNSLKPEDTAVYYCAKDTYLQIYQYGYWGQGTQVTVSS”, the “polyreactivity (PSR sort gate)” value is “high polyreactivity”. Then “QVQLVESGGGLVQAVGSLRLSCAASGFIFGTYAMGWYRQAPGKERELVAVITRGGTTYYADSVKGRFTISRDNAKNTVYLQMNSLKPEDTAVYYCAADPWALFVGDEYYYWGQGTQVTVSS”, with “low polyreactivity”. Then “QVQLVESGGGLVQAVGSLRLSCAASGFTFSVNAMGWYRQAPGKERELVAAITRSGGRTYYADSVKGRFTISRDNAQNTVYLQMNSLKPEDTAVYYCATPRSRTDGYDYWGQGTQVTVSS”, with “high polyreactivity”; and “QVQLVESGGGLVQAVGSLRLSCAASGFTYSPNAMGWYRQAPGKERELVATISWNGGRTHYADSVKGRFTISRDNAKNTVYLQMNSLKPEDTAVYDCNVVRATGRYYYWGQGTQVTVSS”, with “high polyreactivity”. In the case of “QVQLVESGGGLVQAVGSLRLSCAASGLIFKKYAMGWYRQAPGKERELVATITSRGGSTYYADSVKGRFTISRDNAKNTVYLQMNSLKPEDTAVYYCAARFGFYTAYTYNYWGQGTQVTVSS”, the “polyreactivity (PSR sort gate)” value is reported as “high polyreactivity”. Then “QVQLVESGGGLVQAVGSLRLSCAASGRIFRYYAMGWYRQATGKESELVAAISDSSGYTYYADSVKGRFTISRDNAKNTVYLQMISLKPEDTAVYYCRDYLGSGYYYWGQGTQVTVSS”, with “high polyreactivity”; and “QVQLVESGGGLVQAVGSLRLSCAASGRIFYPYAMGWYRQAPGKERELVAVITSGTGTYYADSVKGRFTISRDNAKNTVYLQMNSLKQEDTAVYYCAADRWYYRHRSSSYGYDYWGQGTQVTVSS”, with “high polyreactivity”. Then “QVQLVESGGGLVQAVGSLRLSCAASGRIIVRNAMGWYRQAPGKERELVAAISRSGGSTYYADSVKGRFTLSRDNAKNTVYLQMNSLIPEYTAVYYCAADYPITYTSKFNYWGHGTQVTVSS”, with “high polyreactivity”.
